Source: the supplement of paper PMC9732359
± gives the uncertainty stated by the source.

Test: protein stability index of a GFP-peptide fusion (yeast GPS) (PSI 1-4); higher = more stable; sorted into four equal gates, so the index is relative within each strain
Method in brief: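 Plasmids in a pooled yeast library fused tiled 17-residue yeast protein peptides downstream of GFP and also expressed Cherry. Mid-log cultures grown without leucine were sorted into four equal gates by GFP/Cherry fluorescence ratio. Each gate's plasmids were PCR-amplified and Illumina-sequenced, and reads were matched to strains by barcodes. The protein stability index is derived by multiplying each gate's read frequency by its gate number and summing the results.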

Sequence	protein stability index (doa10∆)	protein stability index (pdr5∆)	protein stability index (san1∆)	protein stability index (ubr1∆)
EPENNTVIEGVKEESQP [SWI3]	3.21 ± 0.095	3.13 ± 0.092	3.08 ± 0.059	2.99 ± 0.081
NSQLVGKPHFSLLGGFD [PCI8]	2.42 ± 0.087	2.33 ± 0.09	2.34 ± 0.18	2.54 ± 0.053
DLLPNSFAKLVPCEGKD [SMC2]	2.2 ± 0.04	2.73 ± 0.038	2.46 ± 0.053	2.45 ± 0.039
STNSNSKPSTASPSAHT [RPN4]	2.63 ± 0.055	3.01 ± 0.086	2.75 ± 0.061	2.82 ± 0.042
VPFIIAAMVIMHLMALH [COB]	2.08 ± 0.055	1.31 ± 0.055	1.79 ± 0.16	1.43 ± 0.041
RMERIKDHLLLEEEFVS [RPT2]	2.24 ± 0.12	2.22 ± 0.097	2.09 ± 0.13	2.23 ± 0.1
DEELVSHFVSAVSTIAS [RPP0]	3.73 ± 0.21	3.12 ± 0.28	2.76 ± 0.18	2.03 ± 0.2
GNLSKREIQIDAVLKIF [SRB8]	2.75 ± 0.065	2.83 ± 0.063	2.99 ± 0.063	2.68 ± 0.049
EGLDELPKIIQLQGPQW [SOH1]	3.16 ± 0.068	3.35 ± 0.057	3.18 ± 0.043	3.15 ± 0.056
NFYLKRFISDLLWLVLI [SWI1]	1.8 ± 0.054	1.88 ± 0.065	1.86 ± 0.095	1.59 ± 0.046
GKILLKGDNITLITSAD [SME1]	2.62 ± 0.092	3.23 ± 0.1	2.77 ± 0.092	3.2 ± 0.053
KRLNFSFVGDYMHDTEL [GRR1]	2.55 ± 0.065	1.89 ± 0.073	2.47 ± 0.11	3.22 ± 0.085
IFSFHQDSIFQRIIADL [SRB8]	2.49 ± 0.062	2.06 ± 0.072	2.24 ± 0.081	2.41 ± 0.035
IVISLKNTMFEKSDALV [SMC1]	2.42 ± 0.071	2.36 ± 0.062	2.55 ± 0.059	2.47 ± 0.042
GRKVLQKVQGESHIDSR [SIR4]	3.27 ± 0.14	3.33 ± 0.079	3.17 ± 0.09	3.27 ± 0.09
VGDFLLQYANNAVISHA [SIN4]	1.99 ± 0.074	1.79 ± 0.05	1.82 ± 0.074	1.49 ± 0.035
HLERNRKDKDAKFRLIL [RPS13]	3.22 ± 0.12	3.06 ± 0.13	3.38 ± 0.24	3.52 ± 0.2
SKLDYIFKDKEKLVSDL [SMC1]	2.89 ± 0.15	3.24 ± 0.085	3.27 ± 0.2	3.37 ± 0.083
RDYSKEILGINLANEQP [SIR4]	2.71 ± 0.048	3.04 ± 0.044	3.07 ± 0.039	3.02 ± 0.036
KLSDIFLSKPSKALYPD [SNF2]	2.53 ± 0.041	2.84 ± 0.049	2.61 ± 0.042	2.7 ± 0.041

Sequence	protein stability index (doa10∆)	protein stability index (pdr5∆)	protein stability index (san1∆)	protein stability index (ubr1∆)
YVISLSYTDAQDKSKKI [YMR129W/POM152]	2.67 ± 0.12	2.95 ± 0.082	2.9 ± 0.072	2.68 ± 0.06
GRDKHALSLLYHLLNYD [SSN3]	2.91 ± 0.074	2.92 ± 0.057	2.94 ± 0.054	3.04 ± 0.064
TELVDKANIFQVIKNEV [SSN2]		2.54 ± 0.18	2.97 ± 0.2	3.16 ± 0.17
NAARKAEASGEAADEAD [RPS9A]	3.29 ± 0.24	3.03 ± 0.29		3.47 ± 0.11
EIVSDVKVVDAGNKVGQ [RPP0]		3.59 ± 0.2		
SKSKQSFTQGELNDLKW [YMR129W/POM152]	3.02 ± 0.13	2.81 ± 0.13	3.08 ± 0.11	2.75 ± 0.092
IASMSTVRASSLQDLIY [SMC2]	1.92 ± 0.069	2.33 ± 0.1	2.53 ± 0.092	2.25 ± 0.037
SRSNFQGKHTKFENDEL [LRP1]	3.28 ± 0.091	2.99 ± 0.085	3.02 ± 0.06	3.22 ± 0.064
SVYGLDDISRQVARTNL [ROX3]	2.06 ± 0.058	2.7 ± 0.059	1.96 ± 0.1	2.94 ± 0.046
KKGKSSDKDATTDGKND [RPN1]		3.28 ± 0.2	3.44 ± 0.16	3.52 ± 0.2
SAKMILLSDPTITIKSY [PRP8]	2.23 ± 0.078	1.91 ± 0.09	3.1 ± 0.099	2.92 ± 0.069
RAFTKKVSSASAAASES [RPL16B]	2.42 ± 0.065	2.19 ± 0.052	2.16 ± 0.065	1.85 ± 0.054
QWSRIVLQNVFKLVSTP [MED1]	1.4 ± 0.039	1.24 ± 0.043	1.23 ± 0.08	1.34 ± 0.038
YPNEVLKFNHGNYSHLM [REC8]	2.7 ± 0.13	2.65 ± 0.059	2.76 ± 0.059	2.88 ± 0.061
IAHENEQKWLIYDKKDH [SRB8]	2.88 ± 0.13	2.83 ± 0.093	2.77 ± 0.17	2.8 ± 0.071
TAEINCFMHLLVQLFLW [RPN3]	1.77 ± 0.063	2.05 ± 0.051	1.68 ± 0.14	2.73 ± 0.072
DMENMADEQKRSTDVWY [ARP7]	2.35 ± 0.05	2.31 ± 0.04	2.62 ± 0.053	2.55 ± 0.044
SAAGNKAIPTFSFGKPF [YIL149C/MLP2]	2.73 ± 0.046	2.86 ± 0.055	2.96 ± 0.045	2.96 ± 0.034
VTLSQLVSVTSTLQHFQ [MED8]	1.9 ± 0.029	2.02 ± 0.031	1.96 ± 0.037	1.87 ± 0.02
AASSQVSIVKLDTQLIT [SNF12]	1.69 ± 0.08	1.74 ± 0.07	1.64 ± 0.16	2.02 ± 0.11
